Drawing on article PMC5119734, this text covers stoichiometry N for one substance.

For test [1], the target named is Group B Streptococcus glyceraldehyde 3-phosphate dehydrogenase, wild type (Streptococcus agalactiae (Group B Streptococcus)). Put plainly: crystal structure; hanging drop vapor diffusion at 295 K, 20-28% PEG4000, 0.1 M MES pH 6.5; apo, mixed-holo, holo (2 mM NAD) and ternary (2 mM NAD, 11 mM DL-G3H) crystals; four subunits in the asymmetric unit.
Test [2] has the same target. Put plainly: SEC; Superdex 200 in 25 mM Hepes, 100 mM NaCl, 5 mM beta-mercaptoethanol, pH 7.35. In general terms: In gel filtration, larger molecules generally elute earlier.

For the substance “Group B Streptococcus glyceraldehyde 3-phosphate dehydrogenase, wild type (enzyme)”, the stoichiometry N in test [1] and in test [2] was 4 throughout.

By stoichiometry N is commonly meant the number of molecules, sites or subunits per partner or assembly.
